Data on 1 protein can be found in paper PMC11151596, “Improving the enzymatic activity and stability of N-carbamoyl hydrolase using deep learning approach” (Microbial Cell Factories, 2024).

Substrate in this series: NC(=O)NC(C(=O)O)c1ccc(O)cc1
As to the kind of experiment: HPLC of D-HPG formed, double reciprocal plot. In kind it is biochemical, Agrobacterium sp. KNK712. Particulars: 50 mM Tris-HCl pH 7.5, 65 °C, 0.1-10.0 mM CpHPG. The text has this: HPLC of D-HPG formed, double reciprocal plot on DCase (N-carbamoyl-D-amino acid amidohydrolase, EC 3.5.1.77; N-carbamoyl hydrolase)

B1: DCase (N-carbamoyl-D-amino acid amidohydrolase, EC 3.5.1.77; N-carbamoyl hydrolase) (Agrobacterium sp. KNK712) (protein)
chain: MTRQMILAVGQQGPIARAETREQVVVRLLDMLTKAASRGANFIVFPELALTTFFPRWHFTDEAELDSFYETEMPGPVVRPLFEKAAELGIGFNLGYAELVVEGGVKRRFNTSILVDKSGKIVGKYRKIHLPGHKEYEAYRPFQHLEKRYFEPGDLGFPVYDVDAAKMGMFICNDRRWPEAWRVMGLRGAEIICGGYNTPTHNPPVPQHDHLTSFHHLLSMQAGSYQNGAWSAAAGKVGMEENCMLLGHSCIVAPTGEIVALTTTLEDEVITAAVDLDRCRELREHIFNFKQHRQPQHYGLIAEL
notes: pET-28a(+)-Case, N- and C-terminal His6 tags, expressed in E. coli BL21(DE3), Ni-NTA purified, about 37 kDa
What is called Km is the concentration of substrate that gives half-maximal velocity. Usually kcat stands for the maximal rate divided by the concentration of active sites. Broadly, the kcat/Km is the turnover number divided by the Michaelis constant. For B1, the Michaelis-Menten constant (Km) was 2590 ± 220 µM, the kcat was 7.98 ± 0.212 s⁻¹ and the kcat/Km is 3080 ± 218 M⁻¹ s⁻¹.
